Laboratory results: article PMC4243247 (Nature Communications, 2014)
Numbering of substitutions follows the chain as printed. In names and notes the source's numbering stands.

Columns and labels:
[1] = target: T1, USP4 catalytic domain (USP4 CD, residues 296–925) (human, UniProt Q13107 296-925); experiment: cell-based or functional assay
T1 sequence (looked up): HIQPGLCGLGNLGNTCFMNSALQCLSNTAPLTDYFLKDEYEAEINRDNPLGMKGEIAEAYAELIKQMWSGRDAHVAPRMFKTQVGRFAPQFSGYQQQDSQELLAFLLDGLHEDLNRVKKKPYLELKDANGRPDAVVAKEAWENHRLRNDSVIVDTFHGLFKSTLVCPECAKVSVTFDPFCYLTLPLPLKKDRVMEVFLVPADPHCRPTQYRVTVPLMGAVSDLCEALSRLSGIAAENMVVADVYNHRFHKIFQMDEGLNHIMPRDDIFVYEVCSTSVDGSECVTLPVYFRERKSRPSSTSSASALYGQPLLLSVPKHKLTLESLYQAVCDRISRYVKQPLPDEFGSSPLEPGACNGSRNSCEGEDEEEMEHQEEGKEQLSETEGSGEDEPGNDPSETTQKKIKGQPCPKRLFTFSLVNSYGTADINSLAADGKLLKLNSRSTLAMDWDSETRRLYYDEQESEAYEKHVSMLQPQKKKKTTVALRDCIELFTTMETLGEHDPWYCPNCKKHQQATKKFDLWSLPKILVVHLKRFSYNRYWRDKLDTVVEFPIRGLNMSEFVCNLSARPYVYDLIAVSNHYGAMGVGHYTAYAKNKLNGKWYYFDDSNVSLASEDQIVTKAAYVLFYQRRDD

[2] = target: T2, USP4 CD (residues 296–925), biotinylated on lysines (human, UniProt Q13107 296-925, biotin on lysines (half molar amounts of EZ-Link Sulfo-NHS-LC-LC-biotin)); experiment: SPR; Biacore T100, 25 °C; ~100 RU of biotinylated USP4 construct on SA chip; DUSP–Ubl concentration series flowed at 30 μl/min in 20 mM HEPES pH 7.5, 150 mM NaCl, 5 mM DTT, 0.05% Tween 20 with NSB reducer; apparent KD from EvilFit after removing the slow nonspecific off-rate component; conditions: both partners purified
T2 construct: USP4, human, catalytic domain with the insert, residues 296-925; same construct as m2, biotinylated for capture on the SA sensor chip; also called immobilized USP4 CD; biotinylated USP4; source: E. coli BL21(DE3), purified, then biotinylated
T2 sequence (looked up): T1 sequence (looked up)

[3] = target: T3, USP4 insert (residues 483–765), biotinylated on lysines (human, UniProt Q13107 483-765, biotin on lysines (half molar amounts of EZ-Link Sulfo-NHS-LC-LC-biotin)); experiment: as above; conditions: both partners purified
T3 construct: USP4, human, the domain inserted within the catalytic core (carries a Ubl domain), residues 483-765; source: E. coli BL21(DE3), purified, then biotinylated
T3 sequence (looked up): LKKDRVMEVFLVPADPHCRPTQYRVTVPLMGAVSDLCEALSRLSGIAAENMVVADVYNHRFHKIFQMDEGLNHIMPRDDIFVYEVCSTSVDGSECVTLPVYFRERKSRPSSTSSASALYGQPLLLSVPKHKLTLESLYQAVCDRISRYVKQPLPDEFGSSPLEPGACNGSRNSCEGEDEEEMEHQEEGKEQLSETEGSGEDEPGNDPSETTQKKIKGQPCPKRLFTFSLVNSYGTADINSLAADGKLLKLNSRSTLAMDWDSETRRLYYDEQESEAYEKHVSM

[4] = target: T4, N-terminally TAMRA-labelled ubiquitin (UniProt P0CG48 1-76, TAMRA on the N-terminus); experiment: fluorescence polarisation; equilibrium: different concentrations of USP4 with 2.5 nM TAMRA-ubiquitin; same setup as the Ub–Rhod assays (25 °C, 20 mM HEPES pH 7.5, 150 mM NaCl, 5 mM DTT, 0.05% Tween 20); one-site binding model accounting for ligand depletion; conditions: both partners purified
T4 construct: ubiquitin, the cut product of the ubiquitin precursors; also called TAMRAUb; TAMRA-Ubiquitin

[5] = target: T4, N-terminally TAMRA-labelled ubiquitin; experiment: fluorescence polarisation; stopped-flow, association: equal volumes of USP4 (100–1,000 nM) and TAMRA-ubiquitin rapidly mixed; 20 °C; 20 mM HEPES pH 7.5, 150 mM NaCl, 5 mM DTT, 0.05% Tween 20; single exponential, kon as slope of Kobs against USP4 concentration; conditions: both partners purified
[6] = target: T4, N-terminally TAMRA-labelled ubiquitin; experiment: fluorescence polarisation; stopped-flow, dissociation: USP4 constructs (12.5–250 nM) incubated with 2.5 nM TAMRA-ubiquitin 10–30 min, mixed with equal volume of 2.5 μM non-labelled ubiquitin; 20 °C; 20 mM HEPES pH 7.5, 150 mM NaCl, 5 mM DTT, 0.05% Tween 20; global fit to a two-phase decay (k_slow, k_fast); conditions: both partners purified

B1: USP4 DUSP–Ubl domain (residues 8–228) (domain or fragment, human, UniProt Q13107 8-228, looked up)
chain: RERPDAETQKSELGPLMRTTLQRGAQWYLIDSRWFKQWKKYVGFDSWDMYNVGEHNLFPGPIDNSGLFSDPESQTLKEHLIDELDYVLVPTEAWNKLLNWYGCVEGQQPIVRKVVEHGLFVKHCKVEVYLLELKLCENSDPTNVLSCHFSKADTIATIEKEMRKLFNIPAERETRLWNKYMSNTYEQLSKLDNTVQDAGLYQGQVLVIEPQNEDGTWPRQT
notes: USP4, human, N-terminal tandem DUSP–Ubl domain, residues 8-228
B1 was tested, and the “Ub–Rhod catalytic rate of USP4 CD (50 nM, 5 μM substrate) with DUSP–Ubl added in trans at different concentrations up to 150 μM” value [1] was roughly 9 fold, the Kd [2] was roughly 100 µM and the Kd [3] was roughly 44 µM.

B2: USP4 DUSP–Ubl Y136A (domain or fragment, human, UniProt Q13107 8-228, looked up)
chain: B1 chain with Y129A
notes: USP4, human, DUSP–Ubl domain residues 8-228 with Y136A at the interface of the DUSP and Ubl domains; also called mutant DUSP–Ubl
B2: binds [2]; binds [3].

B3: USP4 CD F386G (domain or fragment, human, UniProt Q13107 296-925, looked up)
chain: T1 sequence (looked up) with F91G
notes: USP4, human, catalytic domain residues 296-925, switching loop mutant F386G; made with the QuickChange mutagenesis kit
With B3 the Kd [4] was roughly 1 µM, the kon [5] was 35000 ± 7000 M⁻¹ s⁻¹ and the “k_fast (dissociation, fast component)” value [6] was 0.12 ± 0.016 s⁻¹. For the same binder, the “k_slow (dissociation, slow component)” value [6] was 0.015 ± 0.0006 s⁻¹.

B4: USP4 FL F386G (enzyme, human, UniProt Q13107 8-925, looked up)
chain: RERPDAETQKSELGPLMRTTLQRGAQWYLIDSRWFKQWKKYVGFDSWDMYNVGEHNLFPGPIDNSGLFSDPESQTLKEHLIDELDYVLVPTEAWNKLLNWYGCVEGQQPIVRKVVEHGLFVKHCKVEVYLLELKLCENSDPTNVLSCHFSKADTIATIEKEMRKLFNIPAERETRLWNKYMSNTYEQLSKLDNTVQDAGLYQGQVLVIEPQNEDGTWPRQTLQSKSSTAPSRNFTTSPKSSASPYSSVSASLIANGDSTSTCGMHSSGVSRGGSGFSASYNCQEPPSSHIQPGLCGLGNLGNTCFMNSALQCLSNTAPLTDYFLKDEYEAEINRDNPLGMKGEIAEAYAELIKQMWSGRDAHVAPRMFKTQVGRFAPQGSGYQQQDSQELLAFLLDGLHEDLNRVKKKPYLELKDANGRPDAVVAKEAWENHRLRNDSVIVDTFHGLFKSTLVCPECAKVSVTFDPFCYLTLPLPLKKDRVMEVFLVPADPHCRPTQYRVTVPLMGAVSDLCEALSRLSGIAAENMVVADVYNHRFHKIFQMDEGLNHIMPRDDIFVYEVCSTSVDGSECVTLPVYFRERKSRPSSTSSASALYGQPLLLSVPKHKLTLESLYQAVCDRISRYVKQPLPDEFGSSPLEPGACNGSRNSCEGEDEEEMEHQEEGKEQLSETEGSGEDEPGNDPSETTQKKIKGQPCPKRLFTFSLVNSYGTADINSLAADGKLLKLNSRSTLAMDWDSETRRLYYDEQESEAYEKHVSMLQPQKKKKTTVALRDCIELFTTMETLGEHDPWYCPNCKKHQQATKKFDLWSLPKILVVHLKRFSYNRYWRDKLDTVVEFPIRGLNMSEFVCNLSARPYVYDLIAVSNHYGAMGVGHYTAYAKNKLNGKWYYFDDSNVSLASEDQIVTKAAYVLFYQRRDD
notes: USP4, human, residues 8-925, switching loop mutant F386G; made with the QuickChange mutagenesis kit
In the case of B4, the “k_fast (dissociation, fast component)” value [6] is reported as 0.26 ± 0.01 s⁻¹ and the “k_slow (dissociation, slow component)” value [6] is reported as 0.024 ± 0.002 s⁻¹.
